Drawing on patent US20240410900A1, this text covers signal [AU] and signal-to-noise ratio (S/N) for one molecule.

In assay [1] the target is non-targeted IgG-IL2 (interleukin-2 fused to the C-terminus of a heavy chain of a germline antibody, which is not binding to a target). The experiment in a line: bridging ELISA, drug-Bi and drug-Dig, human pooled serum, binder 0.24 ng/mL assay / 4.9 ng/mL matrix. For orientation: An ELISA detects its analyte on a solid surface through an enzyme-linked reagent.
Assay [2] addresses targeted IgG-IL2 (interleukin-2 fused to the C-terminus of a heavy chain of an antibody specifically binding to a therapeutic target). Described as above.
The target in assay [3] is TCB (T-cell bispecific format) drug antibody. Described as above.
For assay [4], the target named is drug antibody (capture and tracer of the bridging immunoassay of FIGS. 2, 7 and 8; not named). The experiment in a line: bridging immunoassay, drug antibody as capture and tracer, binder at 80 ng/ml.
The target in assay [5] is non-targeted IgG-IL2 (interleukin-2 fused to the C-terminus of a heavy chain of a germline antibody, which is not binding to a target). Briefly: bridging ELISA, drug-Bi and drug-Dig, human pooled serum, binder 3.9 ng/mL assay / 78 ng/mL matrix.
For assay [6], the target named is targeted IgG-IL2 (interleukin-2 fused to the C-terminus of a heavy chain of an antibody specifically binding to a therapeutic target). The description is as above.
In assay [7] the target is TCB (T-cell bispecific format) drug antibody. The assay is described as above.
In assay [8] the target is non-targeted IgG-IL2 (interleukin-2 fused to the C-terminus of a heavy chain of a germline antibody, which is not binding to a target). Briefly: bridging ELISA, drug-Bi and drug-Dig, human pooled serum, binder 0.06 ng/mL assay / 1.2 ng/mL matrix.
For assay [9], the target named is targeted IgG-IL2 (interleukin-2 fused to the C-terminus of a heavy chain of an antibody specifically binding to a therapeutic target). The description is as above.
The target of assay [10] is TCB (T-cell bispecific format) drug antibody. Described as above.
Assay [11] concerns the target non-targeted IgG-IL2 (interleukin-2 fused to the C-terminus of a heavy chain of a germline antibody, which is not binding to a target). Briefly: bridging ELISA, drug-Bi and drug-Dig, human pooled serum, binder 0.12 ng/mL assay / 2.4 ng/mL matrix.
In assay [12] the target is targeted IgG-IL2 (interleukin-2 fused to the C-terminus of a heavy chain of an antibody specifically binding to a therapeutic target). Described as above.
The target in assay [13] is TCB (T-cell bispecific format) drug antibody. The assay is described as above.
In assay [14] the target is non-targeted IgG-IL2 (interleukin-2 fused to the C-terminus of a heavy chain of a germline antibody, which is not binding to a target). The experiment in a line: bridging ELISA, IgG-IL2-Bi and -Dig, binder 16 ng/mL assay / 313 ng/mL matrix.
For assay [15] the target is unchanged. The experiment in a line: bridging ELISA, IgG-IL2-Bi and -Dig, binder 0.06 ng/mL assay / 1.2 ng/mL matrix.

B1: multivalent anti-PG antibody derived from clone 1.7.24 (mixed Pool 2, 3, 4) (antibody, V domains shown)
VH: EVKLLESGGGLVQPGGSLKLSCAASGFDFSRYWMNWVRQAPGKGLEWIGEITPDSSTINYTPSLKDKFIISRDNAKNTLYLQMIKVRSEDTALYYCVRPYDYGAWFASWGQGTLVTVSA
VL: QAVVTQESALTTSPGETVTLTCRSSTGAVTTSNYANWVQEKPDHLFTGLIGGTNKRAPGVPARFSGSLIGDKAALTITGAQTEDEAIYFCALWYSNHWVFGGGTKLTVL
modifications: lysine amines derivatised with SATP or MHS and cross-linked (sites not given)
With B1, the signal [AU] in [1] was found to be 0.045 AU; in assay [2] it was 0.055 AU; in assay [3], 0.0645 AU; in [5], 0.088 AU; in assay [6], 0.261 AU; in assay [7], 0.35 AU. The signal [AU] came out at 0.042 AU in assay [8]; 0.042 AU in assay [9]; 0.049 AU in assay [10]; 0.0395 AU in assay [11]; 0.044 AU in [12]; 0.0555 AU in assay [13]. Moreover, the signal [AU] in assay [14] was determined as 0.996 AU; in assay [15], 0.056 AU. Also, the signal-to-noise ratio (S/N) in assay [4] was 4.5.
